Experimental data: the DeepSol protein solubility set

experiment: soluble on expression in E. coli; label from the status in PepcDB or PDB records

Sequence	soluble on expression in E. coli
MSQFSKDQVQDMYYLSPMQEGMLFHAILNPGQSFYLEQITMKVKGSLNIKCLEESMNVIMDRYDVFRTVFIHEKVKRPVQVVLKKRQFHIEEIDLTHLTGSEQTAKINEYKEQDKIRGFDLTRDIPMRAAIFKKAEESFEWVWSYHHIILDGWCFGIVVQDLFKVYNALREQKPYSLPPVKPYKDYIKWLEKQDKQASLRYWREYLEGFEGQTTFAEQRKKQKDGYEPKELLFSPSEAETKAFTELAKSQHTTLSTALQAVWSVLISRYQQSGDLAFGTVVSGRPAEIKGVEHMVGLFINVVPRRVKLSEGITFNGLLKRLQEQSLQSEPHQYVPLYDIQSQADQPKLIDHIIVFENYPLQDAKNEESSENGFDMVDVHVFEKSNYDLNLMASPGDEMLIKLAYNENVFDEAFILRLKSQLLTAIQQLIQNPDQPVSTINLVDDREREFLLTGLNPPAQAHETKPLTYWFKEAVNANPDAPALTYSGQTLSYRELDEEANRIARRLQKHGAGKGSVVALYTKRSLELVIGILGVLKAGAAYLPVDPKLPEDRISYMLADSAAACLLTHQEMKEQAAELPYTGTTLFIDDQTRFEEQASDPATAIDPNDPAYIMYTSGTTGKPKGNITTHANIQGLVKHVDYMAFSDQDTFLSVSNYAFDAFTFDFYASMLNAARLIIADEHTLLDTERLTDLILQENVNVMFATTALFNLLTDAGEDWMKGLRCILFGGERASVPHVRKALRIMGPGKLINCYGPTEGTVFATAHVVHDLPDSISSLPIGKPISNASVYILNEQSQLQPFGAVGELCISGMGVSKGYVNRADLTKEKFIENPFKPGETLYRTGDLARWLPDGTIEYAGRIDDQVKIRGHRIELEEIEKQLQEYPGVKDAVVVADRHESGDASINAYLVNRTQLSAEDVKAHLKKQLPAYMVPQTFTFLDELPLTTNGKVNKRLLPKPDQDQLAEEWIGPRNEMEETIAQIWSEVLGRKQIGIHDDFFALGGHALKAMTAASRIKKELGIDLPVKLLFEAPTIAGISAYLKNGGSDGLQDVTIMNQDQEQIIFAFPPVLGYGLMYQNLSSRLPSYKLCAFDFIEEEDRLDRYADLIQKLQPEGPLTLFGYSAGCSLAFEAAKKLEEQGRIVQRIIMVDSYKKQGVSDLDGRTVESDVEALMNVNRDNEALNSEAVKHGLKQKTHAFYSYYVNLISTGQVKADIDLLTSGADFDIPEWLASWEEATTGVYRMKRGFGTHAEMLQGETLDRNAEILLEFLNTQTVTVSKGEFEAYVEQKLISEEDLNSAVDHHHHHH	soluble
MAQLYFYYSAMNAGKSTALLQSSYNYQERGMRTVVYTAEIDDRFGAGKVSSRIGLSSPAKLFNQNSSLFDEIRAEHEQQAIHCVLVDECQFLTRQQVYELSEVVDQLDIPVLCYGLRTDFRGELFIGSQYLLAWSDKLVELKTICFCGRKASMVLRLDQAGRPYNEGEQVVIGGNERYVSVCRKHYKEALQVGSLTAIQERHRHD	not soluble
MTVATYEVEKQFLTYVKKIQNYGEALSLMFWDLRTGAPKKGVDQRSEVIGMLSSEVFAMSTSDEMGNYLTELEALISEDKLSETTKKMVEECRKEYDRNKKIPQAEYEAYVKLEAKAESVWEEAREKSDFEMFRPYLEQIVEFKKKFITYWGYETYKYNTLLDMYEPGITVEVLDHVFGQLRERIVPLVKEISESQKRLKTSALSEHFSKEKQKNFTLELLKQLNYDFEAGRLDETVHPFEITLNRGDVRITTRYDEKDFRMAVFGTIHECGHAVYEQNIAEKFEGTPLCSGTSMGIHESQSLFFENFIGRNKSFWKKNYDLLKEYSDGQFNDISVDEFYDAINESKPSFIRIEADELTYPLHVMVRYELEKELFDGTLQVKDLPAAWNDKMEAYLGIRPANDAQGVLQDVHWAGGSFGYFPSYALGYMYAAQFKQRMVKDIPNFDALLEEGNVTPIREWLTENIHQYGKTKKPLEILEDVTGEGLNANYLADYLEAKYREIYEL	not soluble
MAHHHHHHMPSSPFPTLPTRATQHHHHCSHTRVHQICPAVPSLSALSNILTVSAMSAKTAAAPSERSFVDRFVRSHAGAATAAGILEIGFFHPFDTIAKRLMANKGSIMRGSTGET	soluble
MGRVFKKKGGAKREAEEEKQEELVMRKKLRKEEEPEPVEDVEEDEDVSDEDDEDIDDEEEDEDEQNIMDFDFEAYPPSEDDRDGIVNMLTQTFLRTDIDLKAMSEGIIAKAPHGVVLTQAYDDEETEEDYMAYGLCTTVPLNDNKDDAPKFIKDLFTYVLNRAKKGAPTEIYKKIEEIQVSGDGKSALFVNERLLNFPTIVVPQIFGSIREDLSGFETKYKTIIYIQKLRIVETDGSEAKVGASSNGSSGVAGKKKGKMGKAEKKRAAAAALANAEIEFDNPEDRVLFEIKEGKEIHFDYPVHMDVEPGSKFHSTEKDGKKWNPFRRLVIMDDKRFDAFLKKGSDGIII	not soluble
MSLKIYGVYRSRASRPLWLLAELDLPFEHVPVIQANRVAHPHGPEAPLNTASAAYLAVNPLGQIPCLEEEGLILTESLAITLHIARTQGGQLGPRSEPEDALMVSWSLFAATAVEPPALEIQLIQRSGGGTSPEGQAAIAIAAERLRRPLARLERHFAAEDYLVGGRFTVADLNLAETLRYGQAHPALLEPFPAVAAWLDRCQSRPAFRLMMERRAAEGHHHHHH	soluble
GPGSMDPNTCAPASAVTDEQPLTLLWGTWEMWCDMPQRQQGQSTENTNWLEQVKSIGLFDSAEGFWGIFNCTILPSQLPPNGSYYLFRKHIAPMWEHEANRRGGKWVIPFTGKASRSEGDLQPVDEAWQTLCLSAIGELFPGDEEEICGVTVSRGRQRTLPSGHATSALSEWKLCLWTRSADNRGSQIRIAEYIRKQLHLQPPSKEASRDGKSGEQDTLMEMPRSPDRSPVAKMREASGIPSAMTYVAHRDLMEAKQEFVKGGSSVAQAFRPKYTLAIDVRNEGV	soluble
MKGLFVTIEGPEGSGKTTLIQSLLPYFEQKEQKVMATREPGGIAISEDIRTILHKQEYTMMEARTEALLYAAARRQHLVEKVMPALNEDYLVLCDRFIDSSLAYQGYARGLGMDKVFEINRFATEDCMPSLTIYLDIEPEVGLARIAKDAGREVNRLDMEDISFHKRVREGYLQVVERFSDRIVLVNADQPMEKLIEEVIQVIEDKLL	soluble
MKNMTALSPSELPRLIDFLEQRNEFAVYAGRVHIHPVTRFCIYWLLLTMTRIREAALMEWSELDGEVWRIPAERKKERRGHDVPLSRAMRWVLDQARGLNVNGRFVFESVNFQGHINKESPHVAMRRSGLDTTAHGLRSLARTYLREVLKVYNDVAEKLLAHSLGLEHHHHHH	not soluble
MGSDKIHHHHHHMILFGTGGIRGVMRKGEFDEETVKRASLSTALWLKEKGQKSVVIAYDTRKNSKEFAELAGRVFAGEGIEAYVFPEPTPTPVLSFAVRYMKTGGGVVITASHNPPEYNGYKVYTWDGVQAIPEYTNEITEIYKKVDLSHVKEGEIKFVPPEVKESYIKAVLEIVSNLPMKTDLDIAYSPLHGTGANYVPEVLKRLGFKVRLVEEQMKPDPNFSTVPTPNPEEDEALVLLNKKGATLGLATDPDCDRVGVVFKGRRLTGNQVGVLLTDFLLDHVKVENPLVIKTIVTTDMVRPICEEKGAFLEETPTGFKFIGHLIEEHTKKGDRNFVFGFEESCGYLAGNHARDKDGVVGSVLSAVAFSNYDPYEKLEELYQKYGYYMEKLINFKFEDVDRAVEIYRSLKNYDGIIDYSKGYGNVIPNETIAFVFEKSRIFVRPSGTEPKLKVYIHVRGDTREEAEELMKESESKIKEILKL	not soluble
MGSDKIHHHHHHLSGQQDDVEDGMDQDTLTRIAEALERMAPVPQSTPDFSAASGFVWHVEPDRLEPVPEINRVELDLLVGIDRSRDTLLENTRRFAAGHAANNALLWGARGMGKSSLVKAIHGALVTDHPELKLVELQREDLPSVARLLNHLRGAPCRFILFCDDLSFSHDDQHYKSLKAVLDGGIEGRPENVVFYATSNRRHLMPRDMIENERSSAINPSEAVEEKVSLSDRFGLWLGFHPCNQDAYLAMIEGYCAAYGVTVDPERLRAEAIEWQATRGARSGRVAWQFFTDLAGREGVALR	not soluble
MAHHHHHHMPSPQSLTGTPRSLQHAPLPAQVVRDALPLRRDVSDLLPVEQLRVLHVLTIAGMPRPHNTHSATISCRLSSPIMSATPNAYWRTCSMRCISVPSLCLEQTLPSSQSTAWMPREAADRSSVCGRSKCAETTATLTPSDISTHSTLPHKRAVPWEREVRRTVLA	not soluble
MGSSHHHHHHSSGRENLYFQGHMSNTYQKRKASKEYGLYNQCKKLNDDELFRLLDDHNSLKRISSARVLQLRGGQDAVRLAIEFCSDKNYIRRDIGAFILGQIKICKKCEDNVFNILNNMALNDKSACVRATAIESTAQRCKKNPIYSPKIVEQSQITAFDKSTNVRRATAFAISVINDKATIPLLINLLKDPNGDVRNWAAFAININKYDNSDIRDCFVEMLQDKNEEVRIEAIIGLSYRKDKRVLSVLCDELKKNTVYDDIIEAAGELGDKTLLPVLDTMLYKFDDNEIITSAIDKLKRS	soluble
GPGSMEEFYGMEVFAGKTAKPNISADRVLHVTQVALPPNASHAITLLVKTEGKSFVLATLDPQQALFHVSVDMLFSGKQKLAFTCEGATGAVHIIGYTQLAEEEEDAIDDEDDDDMMDDEDVA	soluble
MGSDKIHHHHHHMTQVHFTLKSEEIQSIIEYSVKDDVSKNILTTVFNQLMENQRTEYIQAKEYERTENRQSQRNGYYERSFTTRVGTLELKVPRTRDGHFSPTVFERYQRNEKALMASMLEMYVSGVSTRKVSKIVEELCGKSVSKSFVSSLTEQLEPMVNEWQNRLLSEKNYPYLMTDVLYIKVREENRVLSKSCHIAIGITKDGDREIIGFMIQSGESEETWTTFFEYLKERGLQGTELVISDAHKGLVSAIRKSFTNVSWQRCQVHFLRNIFTTIPKKNSKSFREAVKGIFKFTDINLAREAKNRLIHDYIDQPKYSKACASLDDGFEDAFQYTVQGNSHNRLKSTNLIERLNQEVRRREKIIRIFPNQTSANRLIGAVLMDLHDEWIYSSRKYINFDK	not soluble
MSEAAIAKKETLVQAAAEKFESAASVVIVDYRGLTVEEVTNLRKQLRDAGVEMKVIKNSILSRAAKKVGLDGLDEVFTGPTAVAFSNDDVVAPAKIIDEFAKDAKALEIKGGVIEGKVSSVEQITALAKLPNREGLLSMLLSVLQAPVRNVAYAVKAVAEKNEEVA	not soluble
MGHHHHHHSHTQDKNYEDELTQVALALVEDVINYAVKIVEEERNPLKNIKWMTHGEFTVEKGLKQIDEYFSKCVSKKCWAHGVEFVERKDLIHSFLYIYYVHWSISTADLPVARISAGTYFTMKVSKTKPPDAPIVVSYVGDHQALVHRPGMVRFRENWQKNLTDAKYSFMESFPFLFNRV	not soluble
GEIEFIESSKDAGFPVINTPSKTKLEPSVFHQVFEGNKEPAVLRSGDPRLKANFEEAIFSKYIGNVNTHVDEYMLEAVDHYAGQLATLDISTEPMKLEDAVYGTEGLEALDLTTSAGYPYVALGIKKRDILSKKTKDLTKLKECMDKYGLNLPMVTYVKDELRSIEKVAKGKSRLIEASSLNDSVAMRQTFGNLYKTFHLNPGVVTGSAVGCDPDLFWSKIPVMLDGHLIAFDYSGYDASLSPVWFACLKMLLEKLGYTHKETNYIDYLCNSHHLYRDKHYFVRGGMPSGCSGTSIFNSMINNIIIRTLMLKVYKGIDLDQFRMIAYGDDVIASYPWPIDASLLAEAGKGYGLIMTPADKGECFNEVTWTNATFLKRYFRADEQYPFLVHPVMPMKDIHESIRWTKDPKNTQDHVRSLCLLAWHNGEHEYEEFIRKIRSVPVGRCLTLPAFSTLRRKWLDSFHHHHHH	soluble
HMTHIDDYSTWDIVKATQYGIYERCRELVEAGYDVRQPDKENVTLLHWAAINNRIDLVKYYISKGAIVDQLGGDLNSTPLHWATRQGHLSMVVQLMKYGADPSLIDGEGCSCIHLAAQFGHTSIVAYLIAKGQDVDMMDQNGMTPLMWAAYRTHSVDPTRLLLTFNVSVNLGDKYHKNTALHWAVLAGNTTVISLLLEAGANVDAQNIKGESALDLAKQRKNVWMINHLQEARQAKGYDN	soluble
